We go through 167 variants from the Human Domainome abundance scans (Beltran et al. 2025).

± gives the uncertainty stated by the source.

First the molecules themselves.
B1: Chromodomain-helicase-DNA-binding protein 5, residues 338 to 390; numbered along this chain, Q8TDI0 (parent)
chain: YETDHQDYCEVCQQGGEIILCDTCPRAYHLVCLDPELEKAPEGKWSCPHCEKE

The variants in this series derive from B1. The series can be described thus: abundance fitness (aPCA) (normalised: wild type 0, dead -1); higher = more abundant; growth selection in yeast, the domain comes from the species named. The conditions noted are these: Homo sapiens.
With L20Y, the abundance fitness was determined as 0.169 ± 0.15.

On to L20G, for which the abundance fitness was 0.297 ± 0.087.

In the case of L20S, the abundance fitness was 0.233 ± 0.1.

As for L20P, the abundance fitness is 0.234 ± 0.14.

In the case of L20E, the abundance fitness is -0.119 ± 0.16.

Turning to L20D, the abundance fitness was 0.127 ± 0.17.

With L20V, the abundance fitness was determined as 0.051 ± 0.1.

L20A: the abundance fitness is 0.139 ± 0.12.

For L20K, the abundance fitness came to 0.099 ± 0.14.

Take C50M: the abundance fitness is -1.01 ± 0.34.

Turning to C50P, the abundance fitness is -0.499 ± 0.18.

With C50D, the abundance fitness is -0.626 ± 0.24.

C50K: the abundance fitness is -0.405 ± 0.19.

For the variant C50Q, the abundance fitness is -0.365 ± 0.17.

In the case of C50G, the abundance fitness was -0.55 ± 0.1.

As for C50T, the abundance fitness is -0.409 ± 0.19.

As for C50Y, the abundance fitness was -0.507 ± 0.17.

Take C50H: the abundance fitness was found to be 0.231 ± 0.18.

V11T: the abundance fitness was 0.341 ± 0.11.

Consider V11A, for which the abundance fitness turned out to be 0.095 ± 0.1.

Regarding V11L, the abundance fitness came out at 0.245 ± 0.093.

V11N: the abundance fitness is -0.013 ± 0.14.

V11E: the abundance fitness was 0.397 ± 0.1.

Take V11S: the abundance fitness is 0.27 ± 0.09.

Regarding V11G, the abundance fitness amounted to 0.376 ± 0.094.

As for V11K, the abundance fitness stood at 0.481 ± 0.13.

Consider E38R, for which the abundance fitness was -0.147 ± 0.1.

Turning to E38L, the abundance fitness is -0.115 ± 0.13.

For E38C, the abundance fitness was -0.221 ± 0.17.

With E38P, the abundance fitness was 0.188 ± 0.15.

Consider I19G, for which the abundance fitness was -0.177 ± 0.094.

Turning to I19A, the abundance fitness is 0.109 ± 0.1.

Regarding I19M, the abundance fitness came out at 0.256 ± 0.13.

I19K: the abundance fitness stood at 0.315 ± 0.16.

As to I19S, the abundance fitness was -0.104 ± 0.12.

With G43Y, the abundance fitness is -0.323 ± 0.18.

In the case of G43T, the abundance fitness was found to be 0.235 ± 0.13.

For G43S, the abundance fitness came out at 0.087 ± 0.1.

On to G43R, for which the abundance fitness was -0.11 ± 0.098.

Regarding G43L, the abundance fitness is -0.096 ± 0.11.

Turning to Y28N, the abundance fitness was -0.193 ± 0.28.

Turning to Y28I, the abundance fitness was -0.293 ± 0.2.

Y28E: the abundance fitness is -0.668 ± 0.19.

In the case of Y28C, the abundance fitness came out at 0.001 ± 0.16.

Take Y28W: the abundance fitness was -0.098 ± 0.12.

Turning to Y28V, the abundance fitness is 0.054 ± 0.12.

Turning to L33R, the abundance fitness is -0.281 ± 0.11.

L33F: the abundance fitness is -0.013 ± 0.18.

Consider L33S, for which the abundance fitness turned out to be 0.176 ± 0.12.

As for L33W, the abundance fitness turned out to be 0.032 ± 0.13.

As for L33V, the abundance fitness was -0.034 ± 0.097.

For L33P, the abundance fitness was -0.223 ± 0.15.

L33N: the abundance fitness is -0.311 ± 0.17.

Consider D4R, for which the abundance fitness came to 0.054 ± 0.09.

With D4H, the abundance fitness is -0.056 ± 0.16.

Take D4E: the abundance fitness was found to be 0.081 ± 0.11.

Take D4L: the abundance fitness is 0.095 ± 0.095.

In the case of D4A, the abundance fitness was determined as 0.244 ± 0.099.

D4V: the abundance fitness amounted to 0.117 ± 0.089.

On to D4Q, for which the abundance fitness came to 0.368 ± 0.18.

Take D22R: the abundance fitness is -0.067 ± 0.1.

Regarding D22E, the abundance fitness is -0.101 ± 0.2.

Consider D22K, for which the abundance fitness was -0.171 ± 0.19.

In the case of D22A, the abundance fitness worked out at 0.149 ± 0.15.

With D22N, the abundance fitness is -0.015 ± 0.14.

Regarding D22P, the abundance fitness was found to be 0.111 ± 0.13.

Consider A27M, for which the abundance fitness was -0.29 ± 0.17.

With A27Y, the abundance fitness was -0.159 ± 0.24.

In the case of A27T, the abundance fitness turned out to be 0.074 ± 0.14.

With A27P, the abundance fitness was -0.231 ± 0.14.

Consider A27E, for which the abundance fitness was -0.55 ± 0.15.

As to A27C, the abundance fitness was -0.093 ± 0.18.

For the variant A27W, the abundance fitness is -0.186 ± 0.17.

On to A27V, for which the abundance fitness was -0.211 ± 0.12.

Consider H5D, for which the abundance fitness is -0.81 ± 0.22.

Turning to H5Q, the abundance fitness is -0.046 ± 0.16.

In the case of H5I, the abundance fitness worked out at 0.079 ± 0.17.

H5F: the abundance fitness is -0.144 ± 0.3.

Consider H5M, for which the abundance fitness amounted to 0.497 ± 0.12.

Turning to H5L, the abundance fitness came out at 0.375 ± 0.11.

Take H5R: the abundance fitness is 0.192 ± 0.089.

With H5W, the abundance fitness was -0.038 ± 0.1.

Turning to H5C, the abundance fitness stood at 0.394 ± 0.21.

For the variant V31Q, the abundance fitness was -0.315 ± 0.19.

Regarding V31K, the abundance fitness is -0.314 ± 0.17.

As for V31H, the abundance fitness was determined as 0.018 ± 0.21.

V31M: the abundance fitness is -0.383 ± 0.17.

As to V31A, the abundance fitness was -0.046 ± 0.11.

For the variant V31W, the abundance fitness is -0.566 ± 0.16.

For the variant K44S, the abundance fitness is -0.125 ± 0.12.

With K44M, the abundance fitness amounted to 0.116 ± 0.15.

K44W: the abundance fitness is -0.236 ± 0.13.

Consider K44A, for which the abundance fitness was -0.255 ± 0.15.

Turning to C9I, the abundance fitness is -0.774 ± 0.3.

Turning to C9M, the abundance fitness was -0.803 ± 0.16.

On to C9H, for which the abundance fitness was -0.397 ± 0.23.

C9W: the abundance fitness was -1.08 ± 0.18.

With C9L, the abundance fitness was -0.844 ± 0.13.

On to C9V, for which the abundance fitness is -1.07 ± 0.15.

For the variant C9S, the abundance fitness is -0.809 ± 0.17.

Regarding D7F, the abundance fitness was -0.725 ± 0.4.

In the case of D7L, the abundance fitness is -0.527 ± 0.21.

For the variant D7S, the abundance fitness is -0.257 ± 0.16.

As for D7C, the abundance fitness is -0.669 ± 0.24.

For D7Q, the abundance fitness came out at 0.176 ± 0.17.

Turning to D7G, the abundance fitness is -0.252 ± 0.12.

Take D7A: the abundance fitness is -0.045 ± 0.15.

Consider Q6G, for which the abundance fitness is -0.313 ± 0.12.

In the case of Q6Y, the abundance fitness is -0.422 ± 0.2.

With Q6V, the abundance fitness was -0.199 ± 0.12.

As for Q6P, the abundance fitness is 0.25 ± 0.21.

On to P35Y, for which the abundance fitness was 0.027 ± 0.24.

For the variant P35L, the abundance fitness was -0.078 ± 0.097.

For P35N, the abundance fitness is -0.211 ± 0.23.

In the case of P35Q, the abundance fitness is -0.058 ± 0.15.

Turning to P35G, the abundance fitness was 0.181 ± 0.11.

In the case of P35M, the abundance fitness was found to be 0.121 ± 0.13.

As for P35K, the abundance fitness is 0.082 ± 0.15.

As to P35T, the abundance fitness came to 0.069 ± 0.13.

On to K52T, for which the abundance fitness was 0.473 ± 0.14.

Turning to K52M, the abundance fitness worked out at 0.083 ± 0.18.

Consider K52N, for which the abundance fitness was -0.378 ± 0.29.

As to K52W, the abundance fitness is -0.082 ± 0.17.

As for K52D, the abundance fitness was -0.038 ± 0.15.

As for K52G, the abundance fitness came to 0.028 ± 0.099.

K52E: the abundance fitness was -0.288 ± 0.17.

In the case of E10I, the abundance fitness was found to be 0.188 ± 0.18.

As to E10Y, the abundance fitness is 0.209 ± 0.14.

Regarding E10T, the abundance fitness was -0.004 ± 0.14.

Regarding E10K, the abundance fitness was 0.2 ± 0.12.

For E10S, the abundance fitness is -0.112 ± 0.11.

As to E10N, the abundance fitness is 0.338 ± 0.18.

With P41H, the abundance fitness was found to be 0.056 ± 0.17.

P41I: the abundance fitness is 0.117 ± 0.21.

Consider P41F, for which the abundance fitness is -0.164 ± 0.26.

For the variant P41Q, the abundance fitness is -0.568 ± 0.2.

For P41K, the abundance fitness is -0.118 ± 0.17.

Turning to P41Y, the abundance fitness was -0.443 ± 0.27.

Turning to P41N, the abundance fitness was determined as 0.18 ± 0.19.

For P41T, the abundance fitness was -0.17 ± 0.2.

Take Q13F: the abundance fitness was -0.258 ± 0.15.

Regarding Q13K, the abundance fitness was -0.233 ± 0.15.

For the variant Q13I, the abundance fitness was -0.204 ± 0.17.

For the variant Q13E, the abundance fitness was -0.091 ± 0.14.

On to Q13L, for which the abundance fitness was -0.109 ± 0.091.

Consider Q13W, for which the abundance fitness was -0.104 ± 0.1.

For G16N, the abundance fitness is 0.259 ± 0.19.

In the case of G16T, the abundance fitness is 0.265 ± 0.13.

For G16R, the abundance fitness amounted to 0.098 ± 0.1.

As for G16M, the abundance fitness was determined as 0.255 ± 0.14.

For E42P, the abundance fitness was -0.184 ± 0.13.

Consider E42H, for which the abundance fitness was -0.068 ± 0.23.

On to E42Q, for which the abundance fitness is -0.224 ± 0.17.

As for E42K, the abundance fitness is -0.563 ± 0.18.

As for E42I, the abundance fitness was -0.019 ± 0.22.

E42W: the abundance fitness is -0.318 ± 0.15.

As for E42F, the abundance fitness was -0.413 ± 0.18.

In the case of E42T, the abundance fitness turned out to be 0.014 ± 0.13.

Turning to E42L, the abundance fitness is -0.05 ± 0.1.

Consider E42S, for which the abundance fitness was -0.241 ± 0.11.

Take H49K: the abundance fitness was 0.041 ± 0.41.

As to H49N, the abundance fitness amounted to 0.104 ± 0.32.

H49M: the abundance fitness was -0.234 ± 0.42.

For the variant H49D, the abundance fitness is 0.422 ± 0.32.

For the variant H49Q, the abundance fitness worked out at 0.032 ± 0.23.

Turning to H49T, the abundance fitness was determined as 0.139 ± 0.26.

Take H49S: the abundance fitness is -0.312 ± 0.24.
